These results are taken from article PMC5038948, “The Role of Neutrophil Proteins on the Amyloid Beta-RAGE Axis” (PLoS ONE, 2016).

A word on the Kd: it is a measure of binding affinity in units of concentration.

Like-named read-outs stand apart in the source and are kept apart here.

In assay [1] the target is T1, Aβ1–42 (Homo sapiens, UniProt P05067).
T1 construct: Amyloid beta 1–42 (Aβ1–42), a known RAGE ligand; purchased Bachem (Torrance, CA)
Briefly: ELISA: binding of Aβ1–42 to coated neutrophil proteins. The settings on record: for Log binding (Aβ1–42): 0.5 μg/well coated protein, with protease inhibitor cocktail, log OD 492 nm, mean ± SEM, n = 3. The procedure: (§1) The plates were washed three times with PBS containing 0.05% tween (PBST), and then blocked in PBST containing 3% bovine serum albumin (BSA). Indicated proteins were added to the plate in 50 μL PBST containing 0.1% BSA and incubated at 37°C for 70 mins. Wells were washed four times with PBST, and then incubated with 50 μL of goat anti-RAGE primary antibody (0.5 μg/ml) or mouse anti-APP/Aβ antibody (0.5 μg/ml-1 μg/ml) for 1 h. After washing the wells four times with PBST, 50 μL of rabbit anti-goat at 0.16 μg/ml or donkey anti-mouse at 0.04–0.08 μg/ml secondary antibodies were added for 1 h at room temperature.
(§2) All statistics were performed using Graph Pad Prism 6 (GraphPad Software, La Jolla, CA). Data are represented as mean± SEM of results. […] Two-way analysis of variances (ANOVAs) were performed with Dunnett’s multiple comparison tests. […] Kruskal-Wallis tests with Dunn’s multiple comparison tests were used to analyze binding by Far-Western dot blotting (see figure legends 3 and 6 for details on multiple comparison tests). […] To obtain dissociation constants (Kd), half-maximal inhibitory concentrations (IC50), and maximum absorbance values, BSA was subtracted as background and values were fitted to a curve of nonlinear regression.
For orientation: ELISA stands for enzyme-linked immunosorbent assay.

The target of assay [2] is T1, Aβ1–42. Kind of assay: Far-Western dot blot: binding of Aβ1–42 to spotted neutrophil proteins. The settings on record: Aβ1–42 […] (56 nM) with protease inhibitor cocktail; 1 μg spotted protein. The procedure: After spotting, membranes were rinsed with ultrapure water, and Ponceau S (Sigma Aldrich) was used to stain for spotted proteins. Ponceau S was rinsed off with ultrapure water, and membrane blots were blocked for 2 h at room temperature in PBST containing 3% BSA. […] Blots were washed three times with PBST for 10 min, and then incubated with either rabbit anti-RAGE primary antibody (0.8μg/ml) or mouse anti-APP/Aβ (0.25μg/ml) for 2 h at room temperature. Blots were washed three times with PBST for 10 min, and then incubated with donkey anti-rabbit or donkey anti-mouse secondary antibodies at 0.04μg/ml for 45 min at room temperature. Blots were washed three times with PBST. Enhanced chemiluminescent or SuperSignal West femto maximum sensitivity substrates (Pierce) were used to develop blots. Mean dot densities were quantified and normalized to ponceau S dot densities using Image J software (National Institutes of Health (NIH), Bethesda, MD).
Blots were incubated with rocking overnight at 4°C.
All statistics were performed using Graph Pad Prism 6 (GraphPad Software, La Jolla, CA). Data are represented as mean± SEM of results. […] To obtain dissociation constants (Kd), half-maximal inhibitory concentrations (IC50), and maximum absorbance values, BSA was subtracted as background and values were fitted to a curve of nonlinear regression.

Assay [3] concerns the target T2, RAGE Fc chimera (Homo sapiens, UniProt Q15109). Kind of assay: Far-Western dot blot: binding of RAGE to spotted proteins ± GM-0111. As to conditions: 1 μg spotted protein (0.5 μg Aβ1–42). Also noted: purchased R&D Systems Inc. (Minneapolis, MN). As for the experimental part:
as §2

Assay [4] concerns the target T2, RAGE Fc chimera. Kind of assay: ELISA: Aβ1–42 binding to RAGE after pre-incubation of Aβ1–42 with neutrophil proteins. On the set-up: purchased R&D Systems Inc. (RAGE Fc chimera); Bachem (Aβ1–42). The settings on record: for Kd: read-out: KD value for Aβ1–42 binding to RAGE. The procedure: as §1
In this set of experiments, the maxisorp plates were coated with RAGE Fc chimera (0.5 μg/well, 83.3 nM) overnight at 4°C.
as §2

The target in a further assay is T3, Aβ1–42 binding to RAGE (Homo sapiens, UniProt Q15109).
T3 construct: purchased R&D Systems Inc. (RAGE Fc chimera); Bachem (Aβ1–42)
T3 sequence (Q15109 with tags, fused parts or gaps limits assumed): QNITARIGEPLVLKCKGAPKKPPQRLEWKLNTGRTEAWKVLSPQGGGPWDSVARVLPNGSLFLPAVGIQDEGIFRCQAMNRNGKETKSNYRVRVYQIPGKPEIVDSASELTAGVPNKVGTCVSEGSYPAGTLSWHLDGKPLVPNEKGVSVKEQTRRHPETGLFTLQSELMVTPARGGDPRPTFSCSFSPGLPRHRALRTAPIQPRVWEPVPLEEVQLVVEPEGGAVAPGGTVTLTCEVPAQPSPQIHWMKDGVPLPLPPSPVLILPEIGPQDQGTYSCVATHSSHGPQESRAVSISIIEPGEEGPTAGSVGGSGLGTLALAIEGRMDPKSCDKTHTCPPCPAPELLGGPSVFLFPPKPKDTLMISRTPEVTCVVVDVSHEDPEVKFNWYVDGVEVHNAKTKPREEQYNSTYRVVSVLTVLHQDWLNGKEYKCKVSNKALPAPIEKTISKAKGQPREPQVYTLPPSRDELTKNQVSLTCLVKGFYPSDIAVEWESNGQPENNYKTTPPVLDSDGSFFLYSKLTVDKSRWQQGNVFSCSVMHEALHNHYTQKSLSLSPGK
Briefly: ELISA: competitive inhibition of Aβ1–42 binding to RAGE by neutrophil proteins added simultaneously. The procedure:
as §1, §2

For assay [5], the target named is T2, RAGE Fc chimera. Briefly: ELISA: binding of RAGE to coated neutrophil proteins. Also noted: purchased R&D Systems Inc. (Minneapolis, MN). The settings on record: for Log binding (RAGE): wells coated 0.5 μg/well protein, log-transformed OD 492 nm, mean ± SEM. The procedure: as §1
Goat anti-RAGE primary antibody at 0.5 μg/ml was used to detect bound RAGE.
as §2

T2 sequence (Q15109 with tags, fused parts or gaps limits assumed): as above

B1: cationic antimicrobial protein of 37kDa (protein)
chain: IVGGRKARPRQFPFLASIQNQGRHFCGGALIHARFVMTAASCFQSQNPGVSTVVLGAYDLRRRERQSRQTFSISSMSENGYDPQQNLNDLMLLQLDREANLTSSVTILPLPLQNATVEAGTRCQVAGWGSQRSGGRLSRFPRFVNVTVTPEDQCRPNNVCTGVLTRRGGICNGDGGTPLVCEGLAHGVASFSLGPCGRGPDFFTRVALFRDWIDGVLNNPGPGPA
notes: neutrophil protein purified from human neutrophils (Athens Research & Technology)
For the molecule B1, the “Log binding (Aβ1–42)” value with Aβ1–42 [1] (Aβ1–42 0 nM (background)) is reported as “• -0.907±0.139 • p = 0.005”; with Aβ1–42 [1] (Aβ1–42 3.47 nM), “• -0.556±0.047 • p<0.0001”; with Aβ1–42 [1] (Aβ1–42 13.89 nM), “• -0.138±0.047 • p<0.0001”; in the assay with Aβ1–42 [1] (Aβ1–42 27.78 nM), “• 0.137±0.043 • p<0.0001”; with Aβ1–42 [1] (Aβ1–42 55.56 nM) it was “• 0.304±0.039 • p<0.0001”. For the same molecule, the “maximum absorbance value for Aβ1–42 binding” value with Aβ1–42 [1] (ELISA with protease inhibitors, BSA subtracted, nonlinear regression fit) came out at 2.86. In addition, the “binding of Aβ1–42 (far-Western dot blot)” value in the assay with Aβ1–42 [2] is on record as “strong binding”. The “binding of RAGE (far-Western dot blot)” value with RAGE Fc chimera [3] is given as “strong binding”. For the same molecule, the “maximum absorbance (MA) for Aβ1–42 binding to RAGE” value was determined as 3.05 with RAGE Fc chimera [4] (Aβ1–42 pre-incubated with CAP37 500 ng/ml) and 3.70 with RAGE Fc chimera [4] (Aβ1–42 pre-incubated with CAP37 1 μg/ml). Moreover, in the assay with RAGE Fc chimera [4] (Aβ1–42 pre-incubated with CAP37 2 μg/ml), the “maximum absorbance value for Aβ1–42 binding to RAGE” value was found to be 3.27 OD 492 nm. Moreover, the Kd with RAGE Fc chimera [4] (Aβ1–42 pre-incubated overnight 4°C with CAP37 500 ng/ml (21 nM)) was 13.8 nM; with RAGE Fc chimera [4] (Aβ1–42 pre-incubated overnight 4°C with CAP37 1 μg/ml (42 nM)), 59.3 nM; with RAGE Fc chimera [4] (Aβ1–42 pre-incubated overnight 4°C with CAP37 2 μg/ml (83 nM)), 149 nM. Further, the “maximal inhibition of Aβ1–42 binding to RAGE in the absence of protease inhibitors” value with Aβ1–42 binding to RAGE (no protease inhibitors, highest dose of protein) is on record as “complete”. The “inhibition of Aβ1–42 binding to RAGE in the presence of protease inhibitors” value in the assay with Aβ1–42 binding to RAGE (with protease inhibitor cocktail, Aβ1–42 11 nM) was “only partial”. The “maximum absorbance value for RAGE binding” value with RAGE Fc chimera [5] (ELISA, BSA subtracted as background, nonlinear regression fit) is 2.49. The “Log binding (RAGE)” value with RAGE Fc chimera [5] (RAGE 0 nM (background)) is recorded as -0.623; with RAGE Fc chimera [5] (RAGE 0.83 nM), “• 0.112±0.041 • p<0.0001”; with RAGE Fc chimera [5] (RAGE 1.67 nM), “• 0.228±0.043 • p<0.0001”; with RAGE Fc chimera [5] (RAGE 3.33 nM) it was “• 0.325±0.064 • p<0.0001”.
